From US20070172423A1, “Composition and method for modulating vasculogenesis for angiogenesis” (priority 1998, published 2007) come the findings set out here.

In one experiment the test system is HMVEC. Nature of the experiment: HMVEC proliferation assay. The note with it: 50 ng/ml, 7 days. The format is cell-based, human. The procedure: Cell migration assays were performed on growth arrested confluent HMVEC, BAEC or hSMC cells. Cell monolayers were wounded with a rubber policeman and washed with serum-free medium. Dishes were then incubated for 20 hours in serum-free medium containing VEGF165, PDGF-AA, (R&D Systems, Minneapolis USA) or PDGF-CC. Each assay included two dishes per condition and was repeated three times independently. Cells were photographed at 40× magnification, and migration percentage corresponding to the ratio between area of the cells and the total area of the wound (Biocom visiol@b 2000 version 4.52, San Diego). For HMVEC proliferation assay, cells were seeded in 96-well plates (5 wells per condition), and incubated with VEGF, PDGF-AA, or PDGF-CC (50 ng/ml) after serum starvation. After 7 days, viable cells were counted using the cell Titer-glo luminescent cell viability assay. For NIH-3T3 and hSMC proliferation assay, cells cultured in 96-well plates were serum-starved overnight, followed by treatment with growth factors at different concentrations. Two days later, cell numbers were counted and proliferation percentage calculated, using cells cultured in medium containing 10% serum as control. Aortic ring assay was performed as described 51. […] Aortic rings were analysed at day 9 of culturing. […]

In another experiment the target is T1, human VEGFR-1 (Homo sapiens, UniProt P17948).
T1 construct: soluble Ig-fusion proteins containing the extracellular domains of human VEGFR-1, VEGFR-2 and VEGFR-3; made in house; host or cells: human 293 EBNA cells, transient expression
T1 sequence (P17948 27-758 limits assumed): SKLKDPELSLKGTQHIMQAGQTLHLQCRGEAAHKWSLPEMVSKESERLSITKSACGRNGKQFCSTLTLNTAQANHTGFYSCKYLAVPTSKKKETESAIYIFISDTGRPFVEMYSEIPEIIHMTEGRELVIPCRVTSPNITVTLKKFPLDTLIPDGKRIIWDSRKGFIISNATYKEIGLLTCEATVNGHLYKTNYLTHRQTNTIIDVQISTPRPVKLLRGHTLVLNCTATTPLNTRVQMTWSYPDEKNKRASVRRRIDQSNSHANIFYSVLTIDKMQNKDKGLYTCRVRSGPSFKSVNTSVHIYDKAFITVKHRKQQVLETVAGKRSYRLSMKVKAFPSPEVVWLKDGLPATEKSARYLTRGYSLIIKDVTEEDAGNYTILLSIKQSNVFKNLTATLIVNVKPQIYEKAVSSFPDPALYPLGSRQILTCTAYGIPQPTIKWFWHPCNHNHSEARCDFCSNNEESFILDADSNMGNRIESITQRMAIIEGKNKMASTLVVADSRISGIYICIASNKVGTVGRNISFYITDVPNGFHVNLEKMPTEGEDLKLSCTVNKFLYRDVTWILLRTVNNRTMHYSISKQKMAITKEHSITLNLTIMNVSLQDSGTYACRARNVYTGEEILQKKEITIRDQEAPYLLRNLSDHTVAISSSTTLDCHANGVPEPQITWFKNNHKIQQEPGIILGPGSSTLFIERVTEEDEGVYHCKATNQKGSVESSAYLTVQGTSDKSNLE
Nature of the experiment: Binding to soluble VEGFR-1-Ig fusion protein. The settings on record: 35S-labeled protein in conditioned medium from 293 cells, precipitation with Ig-fusion protein. The procedure: To assess the interactions between full length and truncated PDGF-C and the VEGF receptors, full length and truncated PDGF-C were tested for their capacity to bind to soluble Ig-fusion proteins containing the extracellular domains of human VEGFR-1, VEGFR-2 and VEGFR-3 (Olofsson et al., Proc. Natl. Acad. Sci. USA, 1998 95:11709-11714). The fusion proteins, designated VEGFR-1-Ig, VEGFR-2-Ig and VEGFR-3-Ig, were transiently expressed in human 293 EBNA cells. All Ig fusion proteins were human VEGFRs. Cells were incubated for 24 hours after transfection, washed with Dulbecco's Modified Eagle Medium (DMEM) containing 0.2% bovine serum albumin and starved for 24 hours. The fusion proteins were then precipitated from the clarified conditioned medium using protein A-Sepharose beads (Pharmacia). The beads were combined with 100 microliters of 10× binding buffer (5% bovine serum albumin, 0.2% Tween 20 and 10 µg/ml heparin) and 900 microliter of conditioned medium from 293 cells that had been transfected with mammalian expression plasmids encoding full length or truncated PDGF-C or control vector, then metabolically labeled with ^35S-cysteine and methionine (Promix, Amersham) for 4 to 6 hours. […] Labeled proteins that were bound to the Ig-fusion proteins were analyzed by SDS-PAGE under reducing conditions. Radiolabeled proteins were detected using a phosphorimager analyzer.

The target in the next experiment is PDGF alpha receptors (Homo sapiens, UniProt P16234). In words: Competition with 125I-PDGF-BB for binding to PAE-1 cells expressing PDGF alpha-receptor. Also noted: expressed in transfected cells. The note with it: 5 ng/ml 125I-PDGF-BB tracer, on ice 90 minutes. The procedure: Next, full length and truncated PDGF-C were tested for their capacity to bind to human PDGF receptors alpha and beta by analyzing their abilities to compete with PDGF-BB for binding to PDGF receptors. The binding experiments were performed on porcine aortic endothelial-1 (PAE-1) cells stably expressing the human PDGF receptors alpha and beta (Eriksson et al., EMBO J, 1992, 11, 543-550). Binding experiments were performed essentially as in Heldin et al. (EMBO J, 1988, 7:1387-1393). Different concentrations of human full-length and truncated PDGF-C, or human PDGF-BB were mixed with 5 ng/ml of ^125I-PDGF-BB in binding buffer (PBS containing 1 mg/ml of bovine serum albumin). Aliquots were incubated with the receptor expressing PAE-1 cells plated in 24-well culture dishes on ice for 90 minutes. After three washes with binding buffer, cell-bound 125]-PDGF-BB was extracted by lysis of cells in 20 mM Tris-HCl, pH 7.5, 10% glycerol, 1% Triton X-100. The amount of cell bound radioactivity was determined in a gamma-counter. A standard curve for the binding of ^125I-labeled PDGF BB homodimers to PAE-1 cells expressing PDGF alpha-receptor is shown in FIG. 18.
Chain of PDGF alpha receptors (P16234 24-1089): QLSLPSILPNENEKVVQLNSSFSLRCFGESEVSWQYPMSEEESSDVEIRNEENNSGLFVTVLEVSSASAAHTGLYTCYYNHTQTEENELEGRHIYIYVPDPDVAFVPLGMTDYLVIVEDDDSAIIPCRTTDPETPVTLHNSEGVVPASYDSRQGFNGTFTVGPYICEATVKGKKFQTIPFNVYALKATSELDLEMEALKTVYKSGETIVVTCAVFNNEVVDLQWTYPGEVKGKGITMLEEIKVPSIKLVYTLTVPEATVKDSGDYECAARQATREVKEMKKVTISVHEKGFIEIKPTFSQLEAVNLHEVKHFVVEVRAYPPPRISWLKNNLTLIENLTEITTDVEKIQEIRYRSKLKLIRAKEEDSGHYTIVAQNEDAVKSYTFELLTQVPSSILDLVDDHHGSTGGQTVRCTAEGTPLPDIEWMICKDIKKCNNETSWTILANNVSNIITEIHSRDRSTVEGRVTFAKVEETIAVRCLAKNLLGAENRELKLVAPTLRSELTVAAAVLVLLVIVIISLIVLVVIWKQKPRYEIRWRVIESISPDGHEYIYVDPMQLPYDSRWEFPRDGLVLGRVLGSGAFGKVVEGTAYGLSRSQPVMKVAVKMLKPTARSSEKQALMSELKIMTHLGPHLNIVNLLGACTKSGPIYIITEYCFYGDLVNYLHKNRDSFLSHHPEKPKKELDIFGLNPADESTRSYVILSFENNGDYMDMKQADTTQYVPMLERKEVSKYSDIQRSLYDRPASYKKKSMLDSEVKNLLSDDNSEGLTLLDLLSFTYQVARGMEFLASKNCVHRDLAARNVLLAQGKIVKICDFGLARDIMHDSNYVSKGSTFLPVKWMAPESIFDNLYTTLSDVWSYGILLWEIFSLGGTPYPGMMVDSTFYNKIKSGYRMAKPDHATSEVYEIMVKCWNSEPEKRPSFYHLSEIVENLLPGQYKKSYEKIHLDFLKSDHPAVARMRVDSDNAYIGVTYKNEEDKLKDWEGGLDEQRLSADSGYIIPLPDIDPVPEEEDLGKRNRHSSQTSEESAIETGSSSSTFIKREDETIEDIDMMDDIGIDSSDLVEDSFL

B1: PDGF-CC: recombinant human PDGF-CC core domain homodimer, residues 230-345 of full-length PDGF-C (SEQ ID NO:40), produced in baculovirus infected insect cells (protein)
chain: GRKSRVVDLNLLTEEVRLYSCTPRNFSVSIREELKRTDTIFWPGCLLVKRCGGNCACCLHNCNECQCVPSKVTKKYHEVLQLRPKTGVRGLHKSLTDVALEHHEECDCVCRGSTGG
modifications: homodimer; PDGF-C core domain
In the case of B1, the EC proliferation result in the experiment on HMVEC is reported as “no effect”. Further, in the experiment with human VEGFR-1, the “interaction with VEGFR-1-Ig” value is listed as “failed to show any interaction”. Also, the “competition for binding to the PDGF alpha-receptor” value in the experiment with PDGF alpha receptors is listed as “efficiently competed”.
